{"source": "patent US20070286806A1", "about": "“Methods and Compositions for Modulating a Steroid Receptor” (Mount Sinai Hospital, priority 2004, published 2007)", "key": {"[1]": {"biological_target": "T1, PR (Homo sapiens, UniProt P06401)", "T1 construct": "made in house; host or cells: E. coli BL21(DE3)pLysS (GST-PR); rabbit reticulocyte lysate (35S His-PSF)", "T1 sequence (P06401 556-650)": "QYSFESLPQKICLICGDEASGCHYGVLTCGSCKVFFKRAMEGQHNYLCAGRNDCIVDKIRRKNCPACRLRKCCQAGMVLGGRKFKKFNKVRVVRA", "assay": "GST in vitro pulldown assay with 35S-labeled PSF and GST-PR fusion proteins", "type": "binding", "conditions": "35S-labeled PSF", "protocol": "(§1) FIG. 3. Mapping PSF and PR interaction site. (A) GST or GST-PR fusion proteins bound to glutathione-sepharose beads were incubated with ^35S-labeled PSF and binding of PSF was assessed by autoradiography. (B) GST or GST-PSF fusion proteins bound to glutathione-sepharose beads were incubated with ^35S-labeled PRB and binding of PRB was assessed by autoradiography. Input represents 10% of the material used for each sample in A and B. (C) GST-PSF fusion proteins used in assay B were separated on SDS gel and stained with commassie blue.\n(§2) For immunoprecipitation of the endogenous PR and PSF, T47D cells cultured in 150 mm dishes were lysed in 800 μl NETN buffer containing 150 mM NaCl plus protease inhibitor cocktail. Cell lysate were then incubated with 5 μg of PR or PSF, or control mouse IgG at 4° C. overnight, followed by the addition of 30 μl of protein A/G PLUS-agarose beads (Santa Cruz) for another two hours at 4° C. Resins were washed with NETN containing 250 mM NaCl and eluted with 1×Laemmli buffer. […] Gels were treated with Enhancer (NEN, Boston, US) dried and analyzed by autoradiography. • Cell culture and transient transfection: SHM cells and 293T cells were maintained in DMEM plus 5% FCS (Sigma) as described before (22). […] Luciferase activity was determined by using the luciferin reagent (Promega) according to manufacture's protocol. […]"}, "[2]": {"tested_on": "PR", "assay": "GST in vitro pulldown assay with 35S-labeled PSF and GST-PR fusion proteins", "type": "binding", "conditions": "35S-labeled PSF", "protocol": "as §1, §2"}, "[3]": {"biological_target": "T2, glucocorticoid receptor (Mesocricetus auratus, UniProt A0A1U8BQ22)", "T2 construct": "endogenous in cells; host or cells: SHM (Syrian hamster myocyte) cells", "T2 sequence (A0A1U8BQ22 1-774)": "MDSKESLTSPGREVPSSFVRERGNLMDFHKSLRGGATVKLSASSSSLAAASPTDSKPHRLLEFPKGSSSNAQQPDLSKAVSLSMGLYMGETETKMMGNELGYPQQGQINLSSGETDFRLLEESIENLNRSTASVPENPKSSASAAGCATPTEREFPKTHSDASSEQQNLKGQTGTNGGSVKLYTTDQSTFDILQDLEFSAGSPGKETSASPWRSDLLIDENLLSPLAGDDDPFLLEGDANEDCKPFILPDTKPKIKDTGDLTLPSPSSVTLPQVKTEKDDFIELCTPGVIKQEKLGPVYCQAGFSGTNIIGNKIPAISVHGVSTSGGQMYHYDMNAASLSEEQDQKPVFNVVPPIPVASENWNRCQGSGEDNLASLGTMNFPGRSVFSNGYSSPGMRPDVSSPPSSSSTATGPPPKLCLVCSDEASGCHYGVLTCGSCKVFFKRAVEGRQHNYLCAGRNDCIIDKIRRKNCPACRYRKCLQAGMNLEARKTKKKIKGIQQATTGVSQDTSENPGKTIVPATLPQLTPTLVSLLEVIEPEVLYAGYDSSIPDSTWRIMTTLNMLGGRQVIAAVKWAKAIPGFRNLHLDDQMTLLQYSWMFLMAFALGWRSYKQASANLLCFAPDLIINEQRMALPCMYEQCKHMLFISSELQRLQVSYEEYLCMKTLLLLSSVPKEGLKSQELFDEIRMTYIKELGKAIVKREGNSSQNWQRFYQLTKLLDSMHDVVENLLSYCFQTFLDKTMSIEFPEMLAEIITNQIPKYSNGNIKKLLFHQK", "assay": "Glucocorticoid receptor transactivation in SHM cells, MMTV-Luc reporter", "type": "cell-based", "conditions": "1 nM Dex", "protocol": "Hamster smooth muscle cells (SHM) were transiently transfected with PSF-A expression vector together with a MMTV-Luc reporter vector. Cells were treated with either vehicle or 1 nM Dex for at least 24 hours. Luciferase activities were measured and normalized by β-galactosidase acitvity. Data shown in FIG. 13 are the mean of three separate experiments performed in triplicate ±S.E. Note: the empty vector pcDNA3 was added to the DNA mixture to ensure that the amounts of CMV promoter in all the transfection assays are equal."}}, "data": [{"molecule": "polypyrimidine tract binding protein-associated splicing factor (protein, expressed from transfected His-PSF vector or in vitro translated) MSRDRFRSRGGGGGGFHRRGGGGGRGGLHDFRSPPPGMGLNQNRGPMGPGPGQSGPKPPIPPPPPHQQQQQPPPQQPPPQQPPPHQPPPHPQPHQQQQPPPPPQDSSKPVVAQGPGPAPGVGSAPPASSSAPPATPPTSGAPPGSGPGPTPTPPPAVTSAPPGAPPPTPPSSGVPTTPPQAGGPPPPPAAVPGPGPGPKQGPGPGGPKGGKMPGGPKPGGGPGLSTPGGHPKPPHRGGGEPRGGRQHHPPYHQQHHQGPPPGGPGGRSEEKISDSEGFKANLSLLRRPGEKTYTQRCRLFVGNLPADITEDEFKRLFAKYGEPGEVFINKGKGFGFIKLESRALAEIAKAELDDTPMRGRQLRVRFATHAAALSVRNLSPYVSNELLEEAFSQFGPIERAVVIVDDRGRSTGKGIVEFASKPAARKAFERCSEGVFLLTTTPRPVIVEPLEQLDDEDGLPEKLAQKNPMYQKERETPPRFAQHGTFEYEYSQRWKSLDEMEKQQREQVEKNMKDAKDKLESEMEDAYHEHQANLLRQDLMRRQEELRRMEELHNQEMQKRKEMQLRQEEERRRREEEMMIRQREMEEQMRRQREESYSRMGYMDPRERDMRMGGGGAMNMGDPYGSGGQKFPPLGGGGGIGYEANPGVPPATMSGSMMGSDMRTERFGQGGAGPVGGQGPRGMGPGTPAGYGRGREEYEGPNKKPRF", "values": [{"measurement": "binding to GST-PR fusion proteins containing the DBD domain", "setting": "[1]", "value": "bound strongly"}, {"measurement": "binding to other segments of PR", "setting": "[2]", "value": "did not bind"}, {"measurement": "glucocorticoid receptor activation of the MMTV promoter", "setting": "[3]", "value": "blocks its activation of the MMTV promoter"}]}]}
